Source: US12702697B2, “Compositions and methods for treatment of headache disorders and neuropathic pain” (Washington University, priority 2019, dated 2026)

Columns and labels:
Assay type in all cases: in vivo
[1] = system: mTBI-induced facial mechanical hypersensitivity in mice; test: Mouse model of mild traumatic brain injury-induced post-traumatic headache (facial mechanical thresholds, low-dose NTG priming)
Description: Mouse model of mild traumatic brain injury-induced post-traumatic headache. Adult Swiss Webster mice (30-35 g) were subjected to mTBI using a modified closed head weight-drop method. 43, 58 Briefly, mice were anesthetized with 3% isoflurane for 90 seconds and were placed chest down on a foam sponge (4-cm thickness and 0.062-g/cm3 density) directly underneath a hollow cylindrical tube (1.5-cm inner diameter) placed approximately 1 cm vertically over the mouse's head. To induce mTBI, a 30-g weight (1.3-cm diameter and 3.4-cm height) was dropped through the tube from a height of 80 cm, striking the center point between the ears once. All mice regained righting reflex within 2 minutes. […] Sham mice were anesthetized with 3% isoflurane for 90 seconds but not subjected to the weight drop. Facial mechanical thresholds were measured before and at various time points after mTBI. Daily ldIL2 or saline were administered 1 or 7 days after the sham or mTBI procedure. To reveal mTBI-induced hyperalgesia priming, mice received daily i.p. injections of NTG (0.1 mg/kg, i.p.) for 4 to 6 days, starting at 35 days after mTBI. Facial mechanical thresholds were measured between day 35 and 43 days after mTBI. Note that on the days that the mouse behaviors were tested, NTG and/or IL2 were always injected after completing the behavioral tests.
(§1) Withdrawal responses to facial mechanical stimuli. The hair on mouse forehead (above and between 2 eyes) was shaved the day before testing. On the test day, the experimenter gently held the mouse on the palm with minimal restraint and applied the calibrated von Frey filament perpendicularly to the shaved skin, causing the filament to bend for 5 seconds. A positive response was determined by the following criteria as previously described: mouse vigorously stroked its face with the forepaw, head withdrawal from the stimulus, or head shaking (Elliott M B et al., Headache 2012; 52:966-84). The up-down paradigm was used to determine the 50% withdrawal threshold.

[2] = system: sumatriptan-induced cutaneous hypersensitivity in mice; test: Mouse model of medication overuse headache (repeated sumatriptan)
Description: Mouse model of medication overuse headache. After measuring baseline nociceptive responses, mice received daily i.p. injections of sumatriptan succinate (0.6 mg/kg; Fresenius Kabi, Lake Zurich, IL44). Daily ld-IL2 or saline were administered after mice received 2 sumatriptan injections. Facial and hindpaw mechanical thresholds were measured every 2 days. Note that on the days that the mouse behaviors were tested, sumatriptan and/or IL2 were always injected after completing the behavioral tests.
Responses to mechanical stimuli on the hindpaw. Mice were habituated in individual clear plexiglass boxes (11×11×15 cm) for 1 to 2 hours. A series of calibrated von Frey filaments was used to apply mechanical stimuli to the plantar surface of the hindpaws. The up-down paradigm was used to determine the 50% withdrawal threshold. The thresholds for both hindpaws were averaged to yield a single value for each mouse.
as §1

[3] = system: SNI-induced punctate and dynamic allodynia in mice; test: Mouse model of spared nerve injury (SNI): punctate (von Frey) and dynamic (brush) allodynia
Description: Mouse model of SNI. Mice were anesthetized with 3-4% isoflurane in an induction chamber until losing the righting reflex. Anesthesia was maintained by 1.5-2% isoflurane through a nose cone. After skin and muscle incision to expose the right sciatic nerve in the thigh region, we tightly ligated two branches (sural and common peroneal nerves) with 7-0 silk suture (Braintree Scientific, Braintree, MA) and transected ~2 mm of the nerve distal to the ligature. The third branch of the sciatic nerve (tibial nerve) was left intact, and caution was taken not to stretch or contact the spared nerve. In sham mice the right sciatic nerve and its branches were exposed but were not touched. After the surgery, the overlying muscle and skin layers were closed separately with 6-0 vicryl suture and interrupted nylon suture for the skin incision, respectively.
Response to punctate mechanical stimuli on the hindpaw. Mice were habituated in individual clear plexiglass boxes (11×11×15 cm) for 1-2 hours. A series of calibrated von Frey filaments were used to apply mechanical stimuli to the medial plantar surface of the hindpaw (the tibial nerve territory). We used the up-down paradigm to determine the 50% withdrawal threshold.
Response to dynamic mechanical stimuli on the hindpaw. Mice were habituated in individual clear plexiglass boxes (11×11×15 cm) for 1-2 hours. The medial plantar surface of the hindpaw (tibial nerve territory) was stimulated by light stroking with a blunt paintbrush (5/0, Princeton Art & Brush Co., Princeton, NJ) from heel to toe at ~2 cm/second. The behavior was scored as described previously. Score 0 indicates no evoked movement or lifting the stimulated paw for less than 1 second. Score 1 indicates a sustained lifting (more than 2 seconds) of the stimulated paw toward the body or a single gentle flinching of the stimulated paw. Score 2 indicates a strong lateral lift of the stimulated paw above the level of the body or a startle-like jump. Score 3 indicates multiple flinching or licking of the stimulated paw. Each paw was tested 3 times, with minimal interval of 3 minutes. The scores of 3 tests were averaged to indicate the response to dynamic mechanical stimuli.
Ld-IL2 treatment. Recombinant mouse IL2 (carrier-free, Biolegend, San Diego, CA) was freshly diluted from the stock (0.5-1 mg/ml aliquots at −80° C.) every day. Each mouse received daily intraperitoneal (i.p.) injection of 1 μg IL2 in 100 μl saline at various durations. The control mice received daily i.p. injections of 100 μl saline. Note that on the days that the mouse behaviors were tested, IL2 was always injected after completing the behavioral tests. […]

[4] = daily ld-IL2 starting 1 day after mTBI for 9 days, female Swiss Webster

B1: ld-IL2: Recombinant mouse IL2 (carrier-free; Biolegend), given as daily low-dose i.p. injection (protein, UniProt P04351 21-169, looked up)
Interleukin-2: APTSSSTSSSTAEAQQQQQQQQQQQQHLEQLLMDLQELLSRMENYRNLKLPRMLTFKFYLPKQATELKDLQCLEDELGPLRHVLDLTQSKSFQLEDAENFISNIRVTVVKLKGSDNTFECQFDDESATVVDFLRRWIAFCQSIISTSPQ
**Q.** With B1 as the molecule, how does the “persistent facial mechanical hypersensitivity to repeated low-dose NTG after mTBI” value ([1]; 3 weeks after cessation of ld-IL2, male Swiss Webster) read?
**A.** failed to establish

**Q.** And the “duration of protection from mTBI-induced hyperalgesia priming” value ([1]; 9 days of ld-IL2 treatment, male and female mice)?
**A.** at least 30 days

**Q.** What about the “facial mechanical threshold, % of the baseline value” ([1]; after 3 days of ld-IL2 (day 10), started post-mTBI day 7 (about 26%), male Swiss Webster) of the same molecule?
**A.** 87%

**Q.** What about the “facial mechanical sensitivity of sham mice” value ([1]; daily ld-IL2, male Swiss Webster) of the same molecule?
**A.** did not change

**Q.** What about the “hyperalgesia priming revealed by repeated low-dose NTG” value [1, 4] of the same molecule?
**A.** completely prevented

**Q.** What about the “mTBI-induced acute facial mechanical hypersensitivity” value [1, 4] of the same molecule?
**A.** completely prevented

**Q.** What about the “mTBI-induced facial skin hypersensitivity at the end of ld-IL2 treatment” value ([1]; day 15, ld-IL2 day 7 onward for 9 days, male Swiss Webster) of the same molecule?
**A.** fully reversed

**Q.** And the “sumatriptan induced cutaneous hypersensitivity” value ([2]; after 4 to 6 ld-IL2 injections (day 7-9))?
**A.** significantly attenuated

**Q.** What about the “sumatriptan induced cutaneous hypersensitivity” value ([2]; after 8 days of IL2 treatment (day 11)) of the same molecule?
**A.** completely reversed

**Q.** And the “cutaneous hypersensitivity in response to subsequent sumatriptan injections” value ([2]; continuous ld-IL2 (day 13))?
**A.** neither male nor female mice developed cutaneous hypersensitivity

**Q.** And the “days of ld-IL2 treatment after which the mechanical threshold started to reverse” value ([3]; 3-week ld-IL2 started 7 days post-SNI, ipsilateral paw)?
**A.** 3 days

**Q.** What about the “basal punctate and dynamic mechanical sensitivity” value ([3]; 5 days of ld-IL2 injections before SNI, female Swiss Webster) of the same molecule?
**A.** not altered

**Q.** What about the “mechanical threshold of SNI+IL2 versus sham+IL2 group” value ([3]; after 7 days of IL2 treatment (day 14-28)) of the same molecule?
**A.** not different

**Q.** What about the dynamic allodynia ([3]; after 7 days of IL2 treatment (day 15-29)) of the same molecule?
**A.** completely reversed

**Q.** What about the “integrated AOC of withdrawal threshold between day 10 and 28 post-SNI versus SNI+saline” value ([3]; delayed ld-IL2) of the same molecule?
**A.** significantly lower

**Q.** And the “integrated AOC of dynamic allodynia score versus SNI+saline” value ([3]; delayed ld-IL2, between day 10 and 28 post-SNI)?
**A.** significantly lower

**Q.** And the “responses to brush stimuli of the contralateral paw and of sham mice” value ([3]; ld-IL2)?
**A.** did not change

**Q.** And the “SNI-caused reduction of the withdrawal threshold” value ([3]; ld-IL2 1 μg/mouse/day i.p. from 5 days before to 21 days post-SNI (saline: threshold about 20% of baseline))?
**A.** 50%

**Q.** What about the “mechanical threshold of the contralateral (left) paw” value ([3]; ld-IL2, SNI mice) of the same molecule?
**A.** did not change

**Q.** What about the “development of hyper-sensitivity to brush stimuli (dynamic allodynia)” value ([3]; ld-IL2 pretreatment) of the same molecule?
**A.** prevents the development

**Q.** What about the “magnitude of punctate allodynia (AOC day 0 to day 22 post-SNI)” value ([3]; ld-IL2 pretreatment) of the same molecule?
**A.** significantly attenuated
